In US20220403001A1, “PDE5 DERIVED REGULATORY CONSTRUCTS AND METHODS OF USE IN IMMUNOTHERAPY” (Obsidian Therapeutics, Inc., priority 2018, published 2022):

Key:
[1] = biological target: T1, hPDE5 mutants (Homo sapiens, UniProt O76074); assay: GFP MFI by FACS in HCT116 cells transduced with hPDE5 constructs; format: cell-based; settings: for Vardenafil Stabilization ratio / Sildenafil Stabilization ratio / GFP by FACS, Sildenafil 10 μM / GFP by FACS, Vardenafil 1 μM: hotspot constructs; for Vardenafil Stabilization ratio: 1 μM Vardenafil; for Sildenafil Stabilization ratio: 10 μM Sildenafil; for GFP by FACS, Sildenafil 10 μM / GFP by FACS, Vardenafil 1 μM: HCT116
Procedure: (§1) Desirable qualities of a DD include, low expression of the SRE in the absence of ligand and ligand dependent stabilization of the SRE. Constructs were generated using DDs linked to GFP using an SG linker. […] The mean fluorescence intensity (MFI) of GFP was analyzed by FACS. […] Destabilizing mutation coefficient less than 1 are desirable.
(§2) Mean fluorescence intensity (MFI) was measured by FACS. […] Destabilizing mutation coefficient ratios less than 1 are desirable.
(§3) Mean fluorescence intensity (MFI) was measured by FACS. […] Destabilizing mutation co-efficient ratios less than 1 are desirable.
(§4) Mean fluorescence intensity (MFI) was measured by FACS. […] Destabilizing mutation coefficient less than 1 are desirable.
as §4
(§5) Mean fluorescence intensity (MFI) of GFP was measured by FACS.
(§6) Mean fluorescence intensity (MFI) was measured by FACS.
(§7) The media containing the ligand was removed and fresh media without the ligand was added.
(§8) The properties of the DDs were analyzed in the presence and absence of ligands via FACS as previously described.
(§9) GFP fluorescence was measured by FACS.
(§10) The properties of the DDs were analyzed via FACS both in the presence and absence of ligands.
as §9

[2] = system: hPDE5 mutants; assay: as above; format: cell-based, human; settings: for Sildenafil Destabilizing mutation coefficient / Vardenafil Destabilizing mutation coefficient / GFP by FACS, Sildenafil 0 μM (DMSO) / GFP by FACS, Vardenafil 0 μM (DMSO): hotspot constructs; for Sildenafil Destabilizing mutation coefficient: DMSO control of Sildenafil; for Sildenafil Destabilizing mutation coefficient / Vardenafil Destabilizing mutation coefficient: vs OT-001075; for Vardenafil Destabilizing mutation coefficient: DMSO control of Vardenafil; for GFP by FACS, Sildenafil 0 μM (DMSO): HCT116, DMSO control of Sildenafil; for GFP by FACS, Vardenafil 0 μM (DMSO): HCT116, DMSO control of Vardenafil; for MFI: 48 hours, HCT 116 cells
Procedure: as §1, §2, §3, §4, §4, §5, §6, §7, §8, §9, §10, §9

[3] = biological target: T1, hPDE5 mutants; assay: Western blot of AcGFP/GFP protein levels in HCT 116 cells expressing hPDE5 mutants; format: cell-based; set-up: GFP protein levels (western blot); fused on or other part: AcGFP reporter through a linker; settings: vardenafil vs DMSO, HCT 116, R732 mutants
Procedure: Protein expression analysis of the combination mutants was performed in parallel via western blot. […] GAPDH levels were also analyzed to ensure even protein loading.

Substance | Vardenafil Stabilization ratio [1] | Sildenafil Stabilization ratio [1] | GFP by FACS, Sildenafil 10 μM [1] | GFP by FACS, Vardenafil 1 μM [1] | GFP protein levels (western blot) [3] | Sildenafil Destabilizing mutation coefficient [2] | Vardenafil Destabilizing mutation coefficient [2] | GFP by FACS, Sildenafil 0 μM (DMSO) [2] | GFP by FACS, Vardenafil 0 μM (DMSO) [2] | further results
OT-001188: hPDE5 R732V AcGFP construct | 3.38 | 0.6 | 113 | 507 | Modest ligand dependent stabilization of GFP levels | 0.19 | 0.93 | 189 | 150 | –
OT-001200: hPDE5 R732Q AcGFP construct | 0.95 | 1.57 | 553 | 289 | strong stabilization of GFP levels | 0.36 | 1.89 | 353 | 305 | –
OT-001203: hPDE5 R732C AcGFP construct | 0.66 | 1.42 | 707 | 349 | strong stabilization of GFP levels | 0.5 | 3.27 | 499 | 526 | –
OT-001204: hPDE5 R732K AcGFP construct | 3.74 | 4.64 | 765 | 423 | Modest ligand dependent stabilization of GFP levels | 0.17 | 0.7 | 165 | 113 | –

The next lines start with results.

Vardenafil Stabilization ratio [1] | Sildenafil Stabilization ratio [1] | GFP by FACS, Sildenafil 10 μM [1] | GFP by FACS, Vardenafil 1 μM [1] | GFP protein levels (western blot) [3] | Substance | Sildenafil Destabilizing mutation coefficient [2] | Vardenafil Destabilizing mutation coefficient [2] | GFP by FACS, Sildenafil 0 μM (DMSO) [2] | GFP by FACS, Vardenafil 0 μM (DMSO) [2] | further results
1.06 | 2.02 | 710 | 328 | strong stabilization of GFP levels | OT-001195: hPDE5 R732H AcGFP construct | 0.36 | 1.91 | 352 | 308 | –
1.44 | 1.32 | 394 | 422 | strong stabilization of GFP levels | OT-001198: hPDE5 R732D AcGFP construct | 0.3 | 1.83 | 298 | 294 | MFI ([1]; Table 44, Vardenafil 0.01 μM, 48 h, HCT 116): 4336; MFI ([1]; Table 44, Vardenafil 0.04 μM, 48 h, HCT 116): 7350; MFI ([1]; Table 44, Vardenafil 3.33 μM, 48 h, HCT 116): 44499; MFI ([1]; Table 44, Vardenafil 10 μM, 48 h, HCT 116): 50822; MFI ([1]; Table 44, Vardenafil 30 μM, 48 h, HCT 116): 70645; MFI ([1]; Table 44, Vardenafil 1000 μM, 48 h, HCT 116): 70645; MFI ([1]; Table 45, Sildenafil 0.01 μM, 48 h, HCT 116): 1192; MFI ([1]; Table 45, Sildenafil 0.04 μM, 48 h, HCT 116): 1270; MFI ([1]; Table 45, Sildenafil 3.33 μM, 48 h, HCT 116): 6171; MFI ([1]; Table 45, Sildenafil 10 μM, 48 h, HCT 116): 13971; MFI ([1]; Table 45, Sildenafil 30 μM, 48 h, HCT 116): 21120; MFI ([1]; Table 45, Sildenafil 1000 μM, 48 h, HCT 116): 21120; MFI ([1]; Tadalafil 0.01 μM, 48 hours, HCT 116 cells): 1163; MFI ([2]; Tadalafil 11.11 μM): 10583; MFI ([2]; Tadalafil 33.33 μM): 16956; MFI ([2]; Tadalafil 100 μM): 22630; MFI ([2]; Tadalafil 1000 μM): 22630
